Reference: the Human Domainome abundance scans (Beltran et al. 2025)
± gives the uncertainty stated by the source.

B1: PDZ and LIM domain protein 2, residues 284 to 339; numbered along this chain, Q96JY6 (parent)
chain: HTCEKCSTSIANQAVRIQEGRYRHPGCYTCADCGLNLKMRGHFWVGDELYCEKHAR

Variants of: B1
Test: abundance fitness (aPCA) (normalised: wild type 0, dead -1); higher = more abundant; growth selection in yeast, the domain comes from the species named
Settings: Homo sapiens

Variant | abundance fitness
HTCEKCSTSIANQAVRIQEGRYRHPQCYTCADCGLNLKMRGHFWVGDELYCEKHAR [G26Q] | 0.232 ± 0.077
HTCEKCSTSIANQAVRIQEGRYRHPLCYTCADCGLNLKMRGHFWVGDELYCEKHAR [G26L] | 0.122 ± 0.064
HTCEKCSTSIANQAVRIQEGRYRHPDCYTCADCGLNLKMRGHFWVGDELYCEKHAR [G26D] | 0.227 ± 0.073
HTCEKCSTSIANQAVRIQEGRYRHPTCYTCADCGLNLKMRGHFWVGDELYCEKHAR [G26T] | 0.158 ± 0.08
HTCEKCSTSIANQAVRIQEGRYRHPCCYTCADCGLNLKMRGHFWVGDELYCEKHAR [G26C] | 0.006 ± 0.11
HTCEKCSTSIANQAVRIQEGRYRHPICYTCADCGLNLKMRGHFWVGDELYCEKHAR [G26I] | 0.08 ± 0.2
HTCEKCSTSIANQAVRIQEGRYRHPWCYTCADCGLNLKMRGHFWVGDELYCEKHAR [G26W] | 0.072 ± 0.1
HTCEKCSTSIANQAVRIQEGRYRHPHCYTCADCGLNLKMRGHFWVGDELYCEKHAR [G26H] | 0.525 ± 0.14
HTCEKCSTSIANQAVRIQEGRYRHPACYTCADCGLNLKMRGHFWVGDELYCEKHAR [G26A] | 0.033 ± 0.091
HTCEKCSTSIANQAVRIQEGRYRHPMCYTCADCGLNLKMRGHFWVGDELYCEKHAR [G26M] | 0.037 ± 0.092
HTCEKCSTSIANQAVRIQEGRYRHPPCYTCADCGLNLKMRGHFWVGDELYCEKHAR [G26P] | -0.016 ± 0.082
HTCEKCSTSIANQAVRIQEGRYRHPKCYTCADCGLNLKMRGHFWVGDELYCEKHAR [G26K] | 0.209 ± 0.084
HTCEKCSTSIANQAVRIQEGRYRHPECYTCADCGLNLKMRGHFWVGDELYCEKHAR [G26E] | 0.277 ± 0.11
HTCEKCSTSIANQAVRIQEGRYRHPNCYTCADCGLNLKMRGHFWVGDELYCEKHAR [G26N] | -0.083 ± 0.12
HTCEKCSTSIANQAVRIQEGRYRHPRCYTCADCGLNLKMRGHFWVGDELYCEKHAR [G26R] | 0.127 ± 0.068
HTCEKCSTSIANQAVRIQEGRYRHPVCYTCADCGLNLKMRGHFWVGDELYCEKHAR [G26V] | 0.101 ± 0.071
HTCEKCSTSIANQAVRIQEGRYRHPGGYTCADCGLNLKMRGHFWVGDELYCEKHAR [C27G] | -0.514 ± 0.098
HTCEKCSTSIANQAVRIQEGRYRHPGMYTCADCGLNLKMRGHFWVGDELYCEKHAR [C27M] | -0.627 ± 0.099
HTCEKCSTSIANQAVRIQEGRYRHPGRYTCADCGLNLKMRGHFWVGDELYCEKHAR [C27R] | -0.838 ± 0.12
HTCEKCSTSIANQAVRIQEGRYRHPGKYTCADCGLNLKMRGHFWVGDELYCEKHAR [C27K] | -0.39 ± 0.088
HTCEKCSTSIANQAVRIQEGRYRHPGAYTCADCGLNLKMRGHFWVGDELYCEKHAR [C27A] | -0.428 ± 0.087
HTCEKCSTSIANQAVRIQEGRYRHPGNYTCADCGLNLKMRGHFWVGDELYCEKHAR [C27N] | -0.826 ± 0.33
HTCEKCSTSIANQAVRIQEGRYRHPGSYTCADCGLNLKMRGHFWVGDELYCEKHAR [C27S] | -0.598 ± 0.11
HTCEKCSTSIANQAVRIQEGRYRHPGFYTCADCGLNLKMRGHFWVGDELYCEKHAR [C27F] | -1.02 ± 0.3

Variant | abundance fitness
HTCEKCSTSIANQAVRIQEGRYRHPGTYTCADCGLNLKMRGHFWVGDELYCEKHAR [C27T] | -0.442 ± 0.071
HTCEKCSTSIANQAVRIQEGRYRHPGLYTCADCGLNLKMRGHFWVGDELYCEKHAR [C27L] | -0.535 ± 0.062
HTCEKCSTSIANQAVRIQEGRYRHPGWYTCADCGLNLKMRGHFWVGDELYCEKHAR [C27W] | -0.602 ± 0.12
HTCEKCSTSIANQAVRIQEGRYRHPGYYTCADCGLNLKMRGHFWVGDELYCEKHAR [C27Y] | -0.885 ± 0.22
HTCEKCSTSIANQAVRIQEGRYRHPGQYTCADCGLNLKMRGHFWVGDELYCEKHAR [C27Q] | -0.268 ± 0.075
HTCEKCSTSIANQAVRIQEGRYRHPGVYTCADCGLNLKMRGHFWVGDELYCEKHAR [C27V] | -0.661 ± 0.12
HTCEKCSTSIANQAVRIQEGRYRHPGEYTCADCGLNLKMRGHFWVGDELYCEKHAR [C27E] | -0.105 ± 0.12
HTCEKCSTSIANQAVRIQEGRYRHPGPYTCADCGLNLKMRGHFWVGDELYCEKHAR [C27P] | -0.425 ± 0.083
HTCEKCSTSIANQAVRIQEGRYRHPGIYTCADCGLNLKMRGHFWVGDELYCEKHAR [C27I] | -0.904 ± 0.28
HTCEKCSTSIANQAVRIQEGRYRHPGCYACADCGLNLKMRGHFWVGDELYCEKHAR [T29A] | -0.103 ± 0.11
HTCEKCSTSIANQAVRIQEGRYRHPGCYFCADCGLNLKMRGHFWVGDELYCEKHAR [T29F] | -0.194 ± 0.18
HTCEKCSTSIANQAVRIQEGRYRHPGCYSCADCGLNLKMRGHFWVGDELYCEKHAR [T29S] | -0.092 ± 0.081
HTCEKCSTSIANQAVRIQEGRYRHPGCYHCADCGLNLKMRGHFWVGDELYCEKHAR [T29H] | -0.041 ± 0.09
HTCEKCSTSIANQAVRIQEGRYRHPGCYICADCGLNLKMRGHFWVGDELYCEKHAR [T29I] | -0.004 ± 0.1
HTCEKCSTSIANQAVRIQEGRYRHPGCYLCADCGLNLKMRGHFWVGDELYCEKHAR [T29L] | -0.117 ± 0.081
HTCEKCSTSIANQAVRIQEGRYRHPGCYCCADCGLNLKMRGHFWVGDELYCEKHAR [T29C] | -0.23 ± 0.064
HTCEKCSTSIANQAVRIQEGRYRHPGCYDCADCGLNLKMRGHFWVGDELYCEKHAR [T29D] | 0.216 ± 0.14
HTCEKCSTSIANQAVRIQEGRYRHPGCYECADCGLNLKMRGHFWVGDELYCEKHAR [T29E] | -0.455 ± 0.15
HTCEKCSTSIANQAVRIQEGRYRHPGCYNCADCGLNLKMRGHFWVGDELYCEKHAR [T29N] | -0.177 ± 0.15
HTCEKCSTSIANQAVRIQEGRYRHPGCYRCADCGLNLKMRGHFWVGDELYCEKHAR [T29R] | -0.261 ± 0.057
HTCEKCSTSIANQAVRIQEGRYRHPGCYGCADCGLNLKMRGHFWVGDELYCEKHAR [T29G] | -0.198 ± 0.067
HTCEKCSTSIANQAVRIQEGRYRHPGCYPCADCGLNLKMRGHFWVGDELYCEKHAR [T29P] | -0.767 ± 0.28
HTCEKCSTSIANQAVRIQEGRYRHPGCYMCADCGLNLKMRGHFWVGDELYCEKHAR [T29M] | -0.354 ± 0.16
